In US20020142982A1, “Method for regulating angiogenesis” (priority 1999, published 2002):

Biological target: HA-tagged wild-type Akt (UniProt P31749)
Test: cell-based or functional assay

Work on “T236A EDG-1 mutant receptor (from UniProt P21453 1-382)” yielded a restoration of S1P-induced HUVEC chemotaxis by increasing wild-type Akt virus of 65%.
